In patent US20200369752A1 (published 2020):

B1: Syn7031.50.32 (antibody, V domains shown)
VH: EVQLVETGGGLVQPKGSLKLSCAASGFTFNTNAMNWVRQAPGKGLEWVVRIRTKSNNYATYYADSVKDRFTISRDDSQSMLYLQMNNLKTEDTAMYYCVRGGTGTGAMDYWGQGTSVTVSS
VL: DVVMTQTPLSLPVSLGDQASISCRSSQSLVHSNGNTYLHWCLQKPGQSPKLLIYKVSNRFSGVPDRFSGSGSGTDFTLKISRVEAEDLGVYFCSQSTHVPLTFGAGTKLELK
B2: Syn7009.32.40 (antibody, V domains shown)
VH: B1 VH
VL: B1 VL
B3: Syn7012.15.32 (antibody, V domains shown)
VH: B1 VH
VL: NIMMTQSPSSLAVSAGEKVTMSCKSSQSVLYSSNQKNYLAWYQQKPGQSPKLLIYWASTRESGVPDRFTGSGSGTDFTLTISSVQAEDLAVYYCHQYLSSYTFGGGTKLEIK

What follows are binders tested against human fibrillar (PFF) α-Synuclein (UniProt P37840 1-140) (assay: sandwich ELISA).

EC50	Binder
8.86 nM	B1
10.1 nM	B2
10.6 nM	B3

Each binder was assayed against human monomeric α-Synuclein (UniProt P37840 1-140) (assay: sandwich ELISA).

EC50	Binder
567 nM	B1
947 nM	B2
555 nM	B3
